Patent publication US11034728B2, “Peptides for binding epidermal growth factor” (3M INNOVATIVE PROPERTIES COMPANY, priority 2016, dated 2021)
Ends that are not written are not given here.

Tests used:
[1] = biological target: T1, EGF (Homo sapiens, UniProt P01133); assay: Dot blotting analysis, EGF spotted on membrane, probed with biotinylated peptide and Streptavidin-HRP; format: binding; design: Recombinant Human Epidermal Growth Factor (EGF); purchased Abcam plc, Cambridge, Mass; settings: EGF 10 nM spotted; biotinylated peptide 10 ng/mL; Streptavidin-HRP, TMB
T1 sequence (P01133 971-1023 limits assumed): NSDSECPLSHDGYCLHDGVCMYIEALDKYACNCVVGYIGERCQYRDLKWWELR
Experimental: EGF (1 microliter of a 10 nM solution in PBS was spotted a nitrocellulose membrane (obtained from Thermo Fisher Scientific) and the membrane was dried in air for about 30 minutes. The membrane was then incubated in 15 mL of blocking buffer (3 wt. % BSA in PBS) for one hour at room temperature. The membrane was washed three times (15 minutes for each wash) with 15 mL portions of fresh PBST. The washed membrane was incubated with Biotinylated SEQ ID NO: 1 [10 mL of a 10 ng/mL solution in blocking buffer (3 wt. % BSA in PBS)] with gentle agitation for one hour. The membrane was again washed three times (15 minutes for each wash) with 15 mL portions of fresh PBST. The washed membrane was incubated with Streptavidin-HRP [1:5000 dilution in 10 mL of the blocking buffer (3 wt. % BSA in PBS)] for 30 minutes with gentle agitation. Following the incubation, the membrane was washed three times (15 minutes for each wash) with 15 mL portions of fresh PBST. The washed membrane was incubated with 10 mL of the development solution for horseradish peroxidase (TMB-Blotting Substrate Solution, Pierce-Fisher Scientific) with gentle agitation. The color development was stopped by adding water.

[2] = biological target: T1, EGF; assay: biochemical; settings: binding affinity (KD) for EGF, linker modified peptide immobilized on CM5 chip, Biacore 3000, 25° C., HBS-EP, EGF 62.5-1000 nM, 1-to-1 Langmuir fit
Experimental: “Test Method A” refers to the following general surface plasmon resonance (SPR) binding assay. Target protein (e.g., EGF and TNF-□) is immobilized at 25° C. and diluted peptides are injected for 3 min at a flow rate of 10 μl/min at 25° C. Binding assay is performed according to detailed Test method A in Examples.
The following Test Method A was used for determining the binding affinity (KD) of SEQ ID NO: 1 for EGF and TNF-□□ Binding experiments were performed using Biacore 3000 optical biosensors equipped with research-grade CM5 sensor chips (GE Healthcare Bio-Sciences Corporation). The reagents used for the amine-coupling steps [(1-ethyl-3-(3-dimethylaminopropyl)-carbodiimide (EDC); N-hydroxysuccinimide (NHS); and ethanolamine hydrochloride-NaOH (1 M, pH 8.5)] were obtained from GE Healthcare Bio-Sciences Corporation. In order to efficiently immobilize the peptide on the sensor chips, a modified version of SEQ ID NO:1 was prepared by SPPS in which a “CK” amino acid linker sequence was added to the N-terminal end of the SEQ ID NO: 1 peptide (i.e. linker modified version of SEQ ID NO: 1 for immobilization being [sequence]). A standard coupling protocol was employed to immobilize the linker modified version of SEQ ID NO: 1 via the lysine residues. The immobilization was performed at 25° C. using HBS-EP as the running buffer. […]

## Biotinylated SEQ ID NO: 1: Biotinylated version of peptide SEQ ID NO: 1, obtained from GenScript (YVSPGMKNVNWWSHWWHATD; also: biotinylated, place not given here)
[1]
  Dot blot colour development at EGF application site (affinity for EGF): A dark spot developed

## Ac-YVSPGMKNVNWWSHWWHATD-NH2 [SEQ ID NO: 1]
[2]
  Kd: 700 nM
